Results published in the nanobody polyreactivity screen of Harvey et al. (2022).

Assay: yeast display, Sf9 membrane polyspecificity reagent, FACS + sequencing; frameworks hold sequencing errors
Method in brief: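 Galactose induction of a Saccharomyces cerevisiae BJ5465 synthetic nanobody display library ran 36–48 hours. The cells were then stained for 1 hour at 4 °C with 10% biotinylated, detergent-solubilized Sf9 membrane reagent, pulled down on streptavidin microbeads and FACS-sorted into low and high (top ~1%) gates on expression and reagent-binding fluorescence. Labels for polyreactivity follow the gate of origin.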

Sequence	polyreactivity (PSR sort gate)
QVQLVESGGGLVQAGGSLRLSCAASGFIFAGYPMGWYRQAPGKERELVAGITRNGGSTYYADSVKGRFTISRDNAKNTVYLQMNSLKPEDPAVYYCAATRYSFGPRRVDYWGQGTQVTVSS	high polyreactivity
QVQLVESGGGLVQAGGSLRLSCAASGFIFAGYTMGWSRPAHGKERELVAAIRSSGGRTYYADSVKGRFTISRDNAKNTVYLQMYSMKPEDTAVDYCNAVVDRLIFWQFDYWGQGTQVTVSS	high polyreactivity
QVQLVESGGGLVQAGGSLRLSCAASGFIFAKYAMGWYRQAPGKERELVAAITSGGSTNYADSVKGRFTISRDNAKNTVYLQMNSLKPEDTAVYYCNRGFDWWYRYRHYDYWGQGTQVTVSS	low polyreactivity
QVQLVESGGGLVQAGGSLRLSCAASGFIFANYAKGWYRPAPGKERELVAAISSGGITYYADSVKGRFTISRDNAKNTVYLQMNSRKPEDTAVYYCACDVRYQDRSGEYHHWDGDYWGQGTQVTVTS	low polyreactivity
QVQLVESGGGLVQAGGSLRLSCAASGFIFANYAMGWYRQAPGKERELVAAISTSGSSTYYADSVKGRFTISRDNAKNTVYLQMNSLKPEDTAVYYCNTYLTIWGYFYGYDYWGQGTQVTVSS	high polyreactivity
QVQLVESGGGLVQAGGSLRLSCAASGFIFAQNAMGWYRQAPGKERELVAAISGSGGRTYYADSVKGRFTISRDNAKNTVYLQMNSLKPEDTAVYYCAAQSFSGYWGQGTQVTVSS	high polyreactivity
QVQLVESGGGLVQAGGSLRLSCAASGFIFARNAMGWYRQAPGKERELVARITKRGGSTFYADSVKGRFTISRDNAKNTVYLQMNSLKPEDPAVYYCNADGYHGHVEGDYWGQGTQVTVSS	high polyreactivity
QVQLVESGGGLVQAGGSLRLSCAASGFIFARYAMGWYRQAPGKERELVASITRRGGSTYYADSVKGRFTISRDNAKNTVYLQMNSLKPEDTAVYYCARPNLLSGDYWGQGTQVTVSS	high polyreactivity
QVQLVESGGGLVQAGGSLRLSCAASGFIFASYAMGWYRQAPGKERELVAAISWRGGSTYYADSVKGRFTISRDNAKNTVYLQMNSLKPEDTAVYYCKAYVYVGTGRGYDTLDYWGQGTQVTVSS	low polyreactivity
QVQLVESGGGLVQAGGSLRLSCAASGFIFATNAMGWYRQAPGKERELGASISSGDNTNYADSVKGRFTISRDNAKNTVYLQMNSLKPEHTAVYYCAAANKGPDQADYHYDQWGEYEYWGQGTQVTVSS	low polyreactivity
QVQLVESGGGLVQAGGSLRLSCAASGFIFATYAMGWYRQAPGKERELVAAISRRGVRTNYADSVKGRFTISRDNAKNTVYLQMNSLKQEDTAVYYCNAQSHYGKIPMYYWGQGTQVTVSS	high polyreactivity
QVQLVESGGGLVQAGGSLRLSCAASGFIFAYYAMGWYRQAAGKERELVAAITSDGSTYYADSVKGRFTISRDNAKNTVYLQMNSLKPEDTAVYYCNTYWVLRPGYNYWGQGTQVTVSS	high polyreactivity
QVQLVESGGGLVQAGGSLRLSCAASGFIFAYYAMGWYRQAPGKERELVAAISKRGGSTYYADSVKGRFTISRDNAKNTVYLQMNSLKPEDTAVYYCAADGHGGYGYWGQGTQVTVSS	high polyreactivity
QVQLVESGGGLVQAGGSLRLSCAASGFIFAYYAMGWYRQAPGKERELVAAITIDGSTNYADSVKGRFTISRDNAKNTVYLQMNSLKPEDTAVYYCAAADHPPVWYGYWGQGTQVTVSS	low polyreactivity
QVQLVESGGGLVQAGGSLRLSCAASGFIFAYYVMGWYRQAPGKERELVAAITSRGGRTYYADSVKGRFTISRDNAKNTVYLQMNSLKPEDTAVYYCAAYRQLVNLREDYWGQGTQVTVSS	high polyreactivity
QVQLVESGGGLVQAGGSLRLSCAASGFIFDAYVMGWYRQAPGKERELVAAITSSGGSTYYADSVKGRFTISRDNAKNTVYLQMNSLKPEDTAVYYCAATYWPWFVGYTYDLDYWGQGTQVTVSS	low polyreactivity
QVQLVESGGGLVQAGGSLRLSCAASGFIFDDNAMGWYRQAPGKERELVAAITSGGGSTYYADSVKGRFTISRDNAKNTVYLQMNSLKQEDTAVYYCNAVPSQHDEFDSWGQGTQVTVSS	low polyreactivity
QVQLVESGGGLVQAGGSLRLSCAASGFIFDDYARGWYRQAPGKERELVADIDYSGGSRYYADSVKGRFTISRDNAKNPVYLQMTSLKPEETAVYYGTAYYGILYYLLDYWGQGTQVTVSS	high polyreactivity
QVQLVESGGGLVQAGGSLRLSCAASGFIFDGNAMGWYRQAPGKERELVAAIRSGGRPTYAPSVKGRFTSSRDNAKNTVDLQMNSLNPEDTAVYYCAARSIYPYYYRRDNRYYYWGQGTQVTVSS	high polyreactivity
QVQLVESGGGLVQAGGSLRLSCAASGFIFDGYAMGWYRQAPGKERELVADISSVGSTYYADSVKGRFTISRDNAKNTVYLQMNSLKPEDTAVYYCAAVRFYTYNYWGQGTQVSVSS	low polyreactivity
QVQLVESGGGLVQAGGSLRLSCAASGFIFDGYAMGWYSQAPGKERELVAAIDSGGDRTYYADSVKGRFTISRDNAKNTVYLQMNSLKPEDTAVYYCAADSSDPTGYDYWGQGTQVTVSS	low polyreactivity

Sequence	polyreactivity (PSR sort gate)
QVQLVESGGGLVQAGGSLRLSCAASGFIFDGYTMGWYRQAPGKERELVAAITTSGTSTYYADSVKGRFTISRDNAKNTVYLQMNSLKPEDTADYYCAARQYRHRVKYYYWGQGTQVTVSS	high polyreactivity
QVQLVESGGGLVQAGGSLRLSCAASGFIFDLYAMGWYRQAPGKERELVAAITYSGGSTYYADSVKGRFTISRDNAKNTVYLQMNSLKPEDTAVYYCATVEKFYEYDHWGQGTQVTVSS	low polyreactivity
QVQLVESGGGLVQAGGSLRLSCAASGFIFDNYAMGWYRQAPGKERELVAAISRSGGSTYYADSVKGRFTISRDNAKNTVYLQMNSLKPEDTAVYYCAARGKFGIVRYDYWGQGTQVTVSS	high polyreactivity
QVQLVESGGGLVQAGGSLRLSCAASGFIFDNYAMGWYRQAPGKERELVAAISRSGGSTYYADSVKGRFTISRDNAKNTVYLQMNSLKPEDTAVYYCATSGPRGWSLHDYWGQGTQVTVSS	high polyreactivity
QVQLVESGGGLVQAGGSLRLSCAASGFIFDRNAMGWYRQAPGKEREFVAAITRRGGTTYYADSVKGRFTISRDNAKNTVYLQMNSLKPEDTAVYYCAATYLHVYRRRFYYWGQGTQVTVSS	high polyreactivity
QVQLVESGGGLVQAGGSLRLSCAASGFIFDSYAMGCYRQAPGKETELVAAISYSGGNTYYADSVKGRFTISRDNAQITVYLQMNSLKPEDTAFYYCAAEWSDSRWWRLWWYGEDDYWGQGTQVTVSS	high polyreactivity
QVQLVESGGGLVQAGGSLRLSCAASGFIFDSYAMGWYRQAPGKERELVAAISWSGSSTYYADSVKGRFTISRDNAKNTVYLQMNSLKPEDTAVYYCAALVYPYWGCSMYYWGQGTQVTVSS	high polyreactivity
QVQLVESGGGLVQAGGSLRLSCAASGFIFDSYAMGWYRQAPGKERELVAAITTSGGRSYYADSVKGRFTISRDNAKNTVYLQMNSLKPEDTAVYYCAAKYTARWGFDYWGQGTQVTVSS	high polyreactivity
QVQLVESGGGLVQAGGSLRLSCAASGFIFDSYAMGWYRQAPGKERELVAAITYSGSSTYYADSVKGRFTISRDNAKNTVYLQMNSLKPEDTAVYYCAAVWRYSHLYGYWGQGTQVTVSS	high polyreactivity
QVQLVESGGGLVQAGGSLRLSCAASGFIFDVYAMGWYRQAPGKERELVAAISSSGGRTYYADSVKGRFTISRDNAKNTVYLQMNSLKPEDTAVYYCAAKTHSRTKVYTADYWGQGTQVTVSS	high polyreactivity
QVQLVESGGGLVQAGGSLRLSCAASGFIFDVYAMGWYRQAPGKERELVAAITGSGSITYYADSVKGRFTISRDNAKNTVYLQMNSLKPEDTAVYYCAALGPTQDRDYWGQGTQVTVSS	high polyreactivity
QVQLVESGGGLVQAGGSLRLSCAASGFIFDYNAMGWYRQAPGKERELVAAISWSGSRTYYAVSVKGRFTISRDNAKNTVYLQMNSLKPEDTAVYYCAAEWSGEAAWQVGAEDDYWGQGTQVTVSS	low polyreactivity
QVQLVESGGGLVQAGGSLRLSCAASGFIFDYNVMGWYRQAPGKKGSWVAAISWSGGSTYYADSVKGRFTISRDNAKNTVYLQMNSLKPEDTAVYYCAARGTSTYRGTGRYDYWGQGTQVTVSS	high polyreactivity
QVQLVESGGGLVQAGGSLRLSCAASGFIFDYYAMGWYRQAPGKERELVAAITSRGGSTYYADSVKGRFTISRDNAKNTVYLQMNSLKQEDTAVYYCAARRRSAEYNYWGHGTQVTVSS	high polyreactivity
QVQLVESGGGLVQAGGSLRLSCAASGFIFEAYAMGWYRQAPGKERELVAAIDSGGSTDYADSVKGRFTISRDNAKNTVYLQMNSLTPEDTAVYYCIAERAYLLWYNFDYWGQGTKVTVSS	low polyreactivity
QVQLVESGGGLVQAGGSLRLSCAASGFIFEGYAMGWYRQAPGKERELVAAINWSGTTTYYADSVKGRFTISRDNAKNTVYLQMNSLKPEDTAVYYCNARYYVLRGYDYWGQGTQVTVSS	low polyreactivity
QVQLVESGGGLVQAGGSLRLSCAASGFIFEPYAMGWYRQAPGKERELVAAISSGGSTYADSVKGRFTISRDNAKNTVYLQMISLKPEDTAVYYCAADSYYSVWGFYYWGQGTQVTVSS	low polyreactivity
QVQLVESGGGLVQAGGSLRLSCAASGFIFERNAMGWYRQAPGKERELVAGISNNGGSTYYADSVKGRFTISRDNAKNTVYLQMNSLKPEDTAVYYCARDPNDDNSFPYDYWGQGTQVTVSS	low polyreactivity
QVQLVESGGGLVQAGGSLRLSCAASGFIFETYAMGWYRQEPGKERELVAAISRGASTYYADSVKGRFTISRDNAKNTVYLQMNSLKPEDTAVYYCAAKRLSWHRYGYWGQGTQVTVSS	low polyreactivity
QVQLVESGGGLVQAGGSLRLSCAASGFIFEWNAMGWYRQAPGKERELVASITFGGGNTYYADSVKGRFTISRDNAKNTVYLQMNSLKPEDTAVYYCAADDGVTYRGIIFSYLGQGTQVTVSS	low polyreactivity
